Experimental data as given in PMC3098264, “Crystal Structure of the PAC1R Extracellular Domain Unifies a Consensus Fold for Hormone Recognition by Class B G-Protein Coupled Receptors” (PLoS ONE, 2011).
“Also recorded” adds a separate entry of the source.

Molecular target: T1, human PAC1R ECD (MBP-PAC1R (25–140)-His6) (Homo sapiens, UniProt P41586)
T1 construct: made in house; host or cells: E. coli Origami B (DE3), co-expressed with DsbC from pET-Duet1
T1 sequence (P41586 25-140 isoform P41586-3): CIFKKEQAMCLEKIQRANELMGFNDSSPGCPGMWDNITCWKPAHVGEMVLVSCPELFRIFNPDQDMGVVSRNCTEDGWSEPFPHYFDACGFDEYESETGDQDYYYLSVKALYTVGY
Test: AlphaScreen competitive peptide binding assay (unlabelled PACAP peptides vs biotin-PACAP (6–38)-NH2)
Conditions: Ala scanning mutants of PACAP (15–31), 120 µM untagged competing peptides, 40 nM protein and biotinylated PACAP, 20°C, five hours, pH 7.4
Method: The binding of PAC1R with a 35 residue PACAP peptide was analysed using the histidine detection kit of AlphaScreen® luminescent proximity assay from PerkinElmer. All binding assays were performed without cleaving the MBP tag from the receptor ECD. Using its C-terminal His tag, PAC1R was bound to Ni-chelate coated acceptor beads (5 µg/ml) at the final concentrations of 40 nM. Similarly, biotinylated PACAP was bound to streptavidin coated donor beads (5 µg/ml) at the final concentrations of 40 nM. The protein and peptide were pre-incubated with the respective beads for one hour (to ensure maximal binding to the beads), then they were allowed to interact with each other at 20°C for five hours. To perform competitive binding assays, 120 µM of the untagged competing peptides were added at time 0 of the five hour protein-peptide interaction period. All interactions were performed in the background of 50 mM MOPS pH 7.4, 150 mM NaCl and 7 mg/ml BSA. The binding signals were measured in a 384-well microplate using an Envision 2104 plate reader (PerkinElmer). The obtained data for competitive peptide binding were fit as a non-linear regression curve using the variable slope dose-response inhibition analysis using the Prism5.0 (GraphPad). To ensure the specificity of the competing peptides, a control peptide of biotin-Gly6-His6 was used in the same assay setup.

Substance | effect of Ala mutation in PACAP (15–31) on binding to PAC1R ECD (Ala scanning)
K20A′: Ala scanning mutant of PACAP (15–31) (KQMAVAKYLAAVLGKRY; Pituitary adenylate cyclase-activating polypeptide 38; UniProt P18509 146-162, looked up, variant K20A) | affect the binding to PAC1R the most; also recorded: almost completely abolishes the ability of the peptide to bind the receptor ECD
L27A′: Ala scanning mutant of PACAP (15–31) (KQMAVKKYLAAVAGKRY; Pituitary adenylate cyclase-activating polypeptide 38; UniProt P18509 146-162, looked up, variant L27A) | seem to play important roles in the binding; also recorded: affect the binding to PAC1R the most
V19A′: Ala scanning mutant of PACAP (15–31) (KQMAAKKYLAAVLGKRY; Pituitary adenylate cyclase-activating polypeptide 38; UniProt P18509 146-162, looked up, variant V19A) | seem to play important roles in the binding; also recorded: affect the binding to PAC1R the most
